B1: TOR1AIP2 (parent)
chain: AGQEGEDTLRRRLLAPEAGSHPQQ

Variants of: B1
Assay: protein stability index of a GFP-peptide fusion (GPS, HEK-293T) (PSI 1-6); higher = more stable
Conditions: c terminus: a fixed tail appended
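Note: lentivirally expressed fusions sorted by FACS into six bins by GFP to DsRed ratio, PSI derived from sequencing read proportions per bin multiplied by bin number.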

First: AGQEWEDTLRRRLLAPEAGSHPQQ [G5W]
Second: AGQEYEDTLRRRLLAPEAGSHPQQ [G5Y]
The protein stability index of the first is lower: 1.35 for the first, 1.84 for the second.

First: AGQEGADTLRRRLLAPEAGSHPQQ [E6A]
Second: AGQEGDDTLRRRLLAPEAGSHPQQ [E6D]
The protein stability index of the first is lower: 2.25 for the first, 2.79 for the second.

Compared with AGQEGFDTLRRRLLAPEAGSHPQQ [E6F], AGQEGGDTLRRRLLAPEAGSHPQQ [E6G] is lower in protein stability index: 3.25 for the first, 1.73 for the second.

Compared with AGQEGHDTLRRRLLAPEAGSHPQQ [E6H], AGQEGIDTLRRRLLAPEAGSHPQQ [E6I] is lower in protein stability index: 2.32 for the first, 2.13 for the second.

First: AGQEGKDTLRRRLLAPEAGSHPQQ [E6K]
Second: AGQEGLDTLRRRLLAPEAGSHPQQ [E6L]
The protein stability index of the first is higher: 1.95 for the first, 1.94 for the second.

First: AGQEGMDTLRRRLLAPEAGSHPQQ [E6M]
Second: AGQEGNDTLRRRLLAPEAGSHPQQ [E6N]
The protein stability index of the first is lower: 2.33 for the first, 3.08 for the second.

Compared with AGQEGPDTLRRRLLAPEAGSHPQQ [E6P], AGQEGQDTLRRRLLAPEAGSHPQQ [E6Q] is lower in protein stability index: 2.88 for the first, 2.37 for the second.

Going from AGQEGRDTLRRRLLAPEAGSHPQQ [E6R] to AGQEGSDTLRRRLLAPEAGSHPQQ [E6S], the protein stability index falls from 3.06 to 2.59.

Going from AGQEGTDTLRRRLLAPEAGSHPQQ [E6T] to AGQEGVDTLRRRLLAPEAGSHPQQ [E6V], the protein stability index rises from 2.08 to 2.53.

Going from AGQEGWDTLRRRLLAPEAGSHPQQ [E6W] to AGQEGYDTLRRRLLAPEAGSHPQQ [E6Y], the protein stability index falls from 2.63 to 2.5.

First: AGQEGECTLRRRLLAPEAGSHPQQ [D7C]
Second: AGQEGEETLRRRLLAPEAGSHPQQ [D7E]
The protein stability index of the first is lower: 1.54 for the first, 2.56 for the second.

Compared with AGQEGEFTLRRRLLAPEAGSHPQQ [D7F], AGQEGEGTLRRRLLAPEAGSHPQQ [D7G] is lower in protein stability index: 2.47 for the first, 2.12 for the second.

Compared with AGQEGEHTLRRRLLAPEAGSHPQQ [D7H], AGQEGEITLRRRLLAPEAGSHPQQ [D7I] is lower in protein stability index: 2.73 for the first, 1.76 for the second.

First: AGQEGEKTLRRRLLAPEAGSHPQQ [D7K]
Second: AGQEGELTLRRRLLAPEAGSHPQQ [D7L]
The protein stability index of the first is lower: 2.57 for the first, 2.73 for the second.

First: AGQEGEMTLRRRLLAPEAGSHPQQ [D7M]
Second: AGQEGENTLRRRLLAPEAGSHPQQ [D7N]
The protein stability index of the first is lower: 1.88 for the first, 1.97 for the second.

Compared with AGQEGEPTLRRRLLAPEAGSHPQQ [D7P], AGQEGEQTLRRRLLAPEAGSHPQQ [D7Q] is lower in protein stability index: 4.24 for the first, 2.39 for the second.

Compared with AGQEGERTLRRRLLAPEAGSHPQQ [D7R], AGQEGESTLRRRLLAPEAGSHPQQ [D7S] is higher in protein stability index: 1.73 for the first, 2.04 for the second.

Going from AGQEGETTLRRRLLAPEAGSHPQQ [D7T] to AGQEGEVTLRRRLLAPEAGSHPQQ [D7V], the protein stability index falls from 3.15 to 1.76.

AGQEGEYTLRRRLLAPEAGSHPQQ [D7Y] and AGQEGEDALRRRLLAPEAGSHPQQ [T8A] are the same in protein stability index: 2.41 for the first, 2.41 for the second.

Going from AGQEGEDCLRRRLLAPEAGSHPQQ [T8C] to AGQEGEDDLRRRLLAPEAGSHPQQ [T8D], the protein stability index rises from 2.42 to 3.21.

First: AGQEGEDELRRRLLAPEAGSHPQQ [T8E]
Second: AGQEGEDFLRRRLLAPEAGSHPQQ [T8F]
The protein stability index of the first is lower: 2.79 for the first, 3.06 for the second.

Compared with AGQEGEDGLRRRLLAPEAGSHPQQ [T8G], AGQEGEDHLRRRLLAPEAGSHPQQ [T8H] is higher in protein stability index: 2.93 for the first, 3.12 for the second.

Compared with AGQEGEDILRRRLLAPEAGSHPQQ [T8I], AGQEGEDKLRRRLLAPEAGSHPQQ [T8K] is higher in protein stability index: 2.17 for the first, 3.24 for the second.

First: AGQEGEDLLRRRLLAPEAGSHPQQ [T8L]
Second: AGQEGEDMLRRRLLAPEAGSHPQQ [T8M]
The protein stability index of the first is lower: 2.28 for the first, 2.34 for the second.

Compared with AGQEGEDNLRRRLLAPEAGSHPQQ [T8N], AGQEGEDPLRRRLLAPEAGSHPQQ [T8P] is higher in protein stability index: 1.67 for the first, 3.37 for the second.

Going from AGQEGEDQLRRRLLAPEAGSHPQQ [T8Q] to AGQEGEDRLRRRLLAPEAGSHPQQ [T8R], the protein stability index falls from 2.81 to 2.71.

Going from AGQEGEDSLRRRLLAPEAGSHPQQ [T8S] to AGQEGEDVLRRRLLAPEAGSHPQQ [T8V], the protein stability index rises from 2.03 to 3.16.

First: AGQEGEDWLRRRLLAPEAGSHPQQ [T8W]
Second: AGQEGEDYLRRRLLAPEAGSHPQQ [T8Y]
The protein stability index of the first is lower: 1.5 for the first, 3.17 for the second.

First: AGQEGEDTARRRLLAPEAGSHPQQ [L9A]
Second: AGQEGEDTCRRRLLAPEAGSHPQQ [L9C]
The protein stability index of the first is higher: 4.4 for the first, 4.29 for the second.

Going from AGQEGEDTDRRRLLAPEAGSHPQQ [L9D] to AGQEGEDTERRRLLAPEAGSHPQQ [L9E], the protein stability index rises from 4.17 to 4.58.

First: AGQEGEDTFRRRLLAPEAGSHPQQ [L9F]
Second: AGQEGEDTGRRRLLAPEAGSHPQQ [L9G]
The protein stability index of the first is lower: 3.61 for the first, 4.89 for the second.

Going from AGQEGEDTHRRRLLAPEAGSHPQQ [L9H] to AGQEGEDTIRRRLLAPEAGSHPQQ [L9I], the protein stability index falls from 4.71 to 2.33.

Going from AGQEGEDTKRRRLLAPEAGSHPQQ [L9K] to AGQEGEDTMRRRLLAPEAGSHPQQ [L9M], the protein stability index falls from 3.87 to 3.69.

Going from AGQEGEDTNRRRLLAPEAGSHPQQ [L9N] to AGQEGEDTPRRRLLAPEAGSHPQQ [L9P], the protein stability index falls from 4.61 to 4.27.

Compared with AGQEGEDTQRRRLLAPEAGSHPQQ [L9Q], AGQEGEDTRRRRLLAPEAGSHPQQ [L9R] is lower in protein stability index: 4.56 for the first, 4.45 for the second.

Compared with AGQEGEDTSRRRLLAPEAGSHPQQ [L9S], AGQEGEDTTRRRLLAPEAGSHPQQ [L9T] is lower in protein stability index: 5.06 for the first, 4.59 for the second.

First: AGQEGEDTVRRRLLAPEAGSHPQQ [L9V]
Second: AGQEGEDTWRRRLLAPEAGSHPQQ [L9W]
The protein stability index of the first is higher: 3.8 for the first, 2.41 for the second.

Going from AGQEGEDTYRRRLLAPEAGSHPQQ [L9Y] to AGQEGEDTLARRLLAPEAGSHPQQ [R10A], the protein stability index rises from 3.67 to 4.84.

First: AGQEGEDTLCRRLLAPEAGSHPQQ [R10C]
Second: AGQEGEDTLDRRLLAPEAGSHPQQ [R10D]
The protein stability index of the first is higher: 5.64 for the first, 5.38 for the second.

First: AGQEGEDTLERRLLAPEAGSHPQQ [R10E]
Second: AGQEGEDTLFRRLLAPEAGSHPQQ [R10F]
The protein stability index of the first is higher: 5.4 for the first, 4.51 for the second.

Compared with AGQEGEDTLGRRLLAPEAGSHPQQ [R10G], AGQEGEDTLHRRLLAPEAGSHPQQ [R10H] is higher in protein stability index: 5.17 for the first, 5.31 for the second.

First: AGQEGEDTLIRRLLAPEAGSHPQQ [R10I]
Second: AGQEGEDTLKRRLLAPEAGSHPQQ [R10K]
The protein stability index of the first is lower: 4.62 for the first, 5.06 for the second.

Compared with AGQEGEDTLLRRLLAPEAGSHPQQ [R10L], AGQEGEDTLMRRLLAPEAGSHPQQ [R10M] is higher in protein stability index: 4.82 for the first, 4.88 for the second.

Going from AGQEGEDTLNRRLLAPEAGSHPQQ [R10N] to AGQEGEDTLPRRLLAPEAGSHPQQ [R10P], the protein stability index falls from 5.29 to 5.19.

Going from AGQEGEDTLQRRLLAPEAGSHPQQ [R10Q] to AGQEGEDTLSRRLLAPEAGSHPQQ [R10S], the protein stability index rises from 5.08 to 5.29.

Compared with AGQEGEDTLTRRLLAPEAGSHPQQ [R10T], AGQEGEDTLVRRLLAPEAGSHPQQ [R10V] is lower in protein stability index: 5.17 for the first, 4.26 for the second.

Going from AGQEGEDTLWRRLLAPEAGSHPQQ [R10W] to AGQEGEDTLYRRLLAPEAGSHPQQ [R10Y], the protein stability index rises from 4.37 to 4.53.

Reference: the supplement of paper PMC10567573
